Assay results from publication PMC9977449, “Discovery of lipid-mediated protein–protein interactions in living cells using metabolic labeling with photoactivatable clickable probes†” (Chemical Science, 2023).
Positions count from the first letter of the chain named.

Key:
[1] = target: T1, FSP1-TST, wild type, from cells under NMT inhibition (UniProt Q9BRQ8 1-373); assay: co-IP; as a2, wild-type FSP1-TST with NMT inhibition of the cells; conditions: partners not purified
T1 construct: FSP1 (ferroptosis suppressor protein 1); same construct as m3; not shown: Twin-Strep-tag, C-terminal, kept
T1 sequence (looked up): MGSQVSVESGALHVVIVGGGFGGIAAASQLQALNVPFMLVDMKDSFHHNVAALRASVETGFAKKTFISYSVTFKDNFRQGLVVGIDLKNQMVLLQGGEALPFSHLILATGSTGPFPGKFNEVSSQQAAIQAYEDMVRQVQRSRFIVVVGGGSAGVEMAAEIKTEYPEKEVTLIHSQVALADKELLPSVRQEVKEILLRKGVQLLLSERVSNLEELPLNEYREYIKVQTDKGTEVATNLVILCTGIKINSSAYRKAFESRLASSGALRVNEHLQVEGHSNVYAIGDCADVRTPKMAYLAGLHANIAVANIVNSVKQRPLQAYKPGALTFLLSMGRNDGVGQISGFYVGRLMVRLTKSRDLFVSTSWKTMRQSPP

[2] = target: T2, FSP1-TST, myristoylation-deficient G2A mutant (UniProt Q9BRQ8 1-373, G2A); assay: co-IP; TST-tagged protein (WT or G2A) transfected in HEK293 cells, captured on Strep-Tactin resin; blot with TRA2B or TOMM40 antibody, signal normalised to the bait's signal; conditions: partners not purified
T2 construct: FSP1 (ferroptosis suppressor protein 1) with G2A; also called FSP1 G2A mutant; source: HEK293, transfected, in lysate; not shown: Twin-Strep-tag, C-terminal, kept
T2 sequence (looked up): T1 sequence (looked up) with G2A

co-immunoprecipitated TOMM40, percent of WT [1]: 28 % of WT
co-immunoprecipitated TOMM40, percent of WT FSP1 [2]: 22 % of WT FSP1
B1: TOMM40, mitochondrial protein that facilitates protein import into mitochondria (natural protein, human (endogenous in HEK293), UniProt O96008 1-361, looked up)
chain: MGNVLAASSPPAGPPPPPAPALVGLPPPPPSPPGFTLPPLGGSLGAGTSTSRSSERTPGAATASASGAAEDGACGCLPNPGTFEECHRKCKELFPIQMEGVKLTVNKGLSNHFQVNHTVALSTIGESNYHFGVTYVGTKQLSPTEAFPVLVGDMDNSGSLNAQVIHQLGPGLRSKMAIQTQQSKFVNWQVDGEYRGSDFTAAVTLGNPDVLVGSGILVAHYLQSITPCLALGGELVYHRRPGEEGTVMSLAGKYTLNNWLATVTLGQAGMHATYYHKASDQLQVGVEFEASTRMQDTSVSFGYQLDLPKANLLFKGSVDSNWIVGATLEKKLPPLPLTLALGAFLNHRKNKFQCGFGLTIG
modifications: myristoylated (the paper: 'is itself also myristoylated')
notes: TOMM40, endogenous in HEK293 cells, detected with a TOMM40 antibody; source: endogenous, HEK293 lysate
